Data on two molecules can be found in US9878045B2, “Triorthogonal reagents for dual protein conjugation” (REGENTS OF THE UNIVERSITY OF MINNESOTA, priority 2013, dated 2018).

Test in all cases: Continuous fluorescence-based PFTase enzyme assay, prenylation of N-dansyl-GCVIA (2)
Holding throughout (type): biochemical, Yeast

The target of one data set is T1, PFTase (Saccharomyces cerevisiae, UniProt P22007+P29703).
T1 sequence (P22007 1-431): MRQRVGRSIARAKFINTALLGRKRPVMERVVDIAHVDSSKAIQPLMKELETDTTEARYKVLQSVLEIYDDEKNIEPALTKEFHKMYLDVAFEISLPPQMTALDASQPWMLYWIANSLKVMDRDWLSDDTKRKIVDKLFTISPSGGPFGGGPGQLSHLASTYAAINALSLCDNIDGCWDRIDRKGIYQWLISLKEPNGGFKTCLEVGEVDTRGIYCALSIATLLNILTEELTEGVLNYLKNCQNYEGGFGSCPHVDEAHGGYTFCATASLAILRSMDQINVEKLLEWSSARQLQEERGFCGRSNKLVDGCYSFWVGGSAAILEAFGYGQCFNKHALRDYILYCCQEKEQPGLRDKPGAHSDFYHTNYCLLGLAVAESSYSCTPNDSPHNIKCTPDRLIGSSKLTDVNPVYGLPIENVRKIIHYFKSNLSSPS
T1 sequence (P29703 1-316): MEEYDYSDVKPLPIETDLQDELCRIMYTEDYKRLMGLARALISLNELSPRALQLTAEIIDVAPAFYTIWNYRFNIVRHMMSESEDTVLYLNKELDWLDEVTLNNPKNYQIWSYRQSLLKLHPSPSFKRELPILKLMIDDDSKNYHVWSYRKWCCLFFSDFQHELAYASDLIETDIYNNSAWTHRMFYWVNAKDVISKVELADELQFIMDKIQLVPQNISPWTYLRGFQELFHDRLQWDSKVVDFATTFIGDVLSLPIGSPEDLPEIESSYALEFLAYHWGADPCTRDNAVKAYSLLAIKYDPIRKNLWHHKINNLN
On the procedure: (§1) Next, a kinetic analysis of that reaction was performed using varying concentrations of 1 and N-dansyl-GCVIA (SEQ ID NO: 2) (2) in the presence of PFTase showing that the enzymatic process obeyed saturation kinetics. Steady-state kinetic parameters for the prenylation reaction using the bifunctional aldehyde-alkyne analogue are shown in FIG. 4. […] Nevertheless, despite this lower activity with 1, using elevated levels of PFTase (200 nM), it is relatively easy to drive these enzymatic reactions to completion in 2 hours.
Enzymatic reaction mixtures contained Tris.HCl (50 mM, pH 7.5), MgCl2 (10 mM), ZnCl2 (10 μM), DTT (5.0 mM), 2.4 μN-dansyl-GCVIA (SEQ ID NO: 2) (2), 0.040% (w/v) n-dodecyl-β-D-maltoside PFTase (80 nM), and varying concentrations of 1 (0-50 μM), in a final volume of 250 μL. The reaction mixtures were equilibrated at 30 ° C. for 1 min, initiated by the addition of PFTase, and monitored for an increase in fluorescence (λex=340 nm, λem=505 nm) for approximately 20 min. The initial rates of formation of products were obtained as slopes in IU/min using least squares analysis. Corrections were applied to all the rate calculations based on the difference between the fluorescence intensity of the prenylated product and the starting peptide. Assuming 100% conversion, the difference corresponds only to the fluorescence of the total amount of the product. […]

Substrate in data set [1]: C#Cc1cc(C=O)cc(OC/C(C)=C/CC/C(C)=C/COP(=O)(O)OP(=O)(O)O)c1
The conditions noted are these: other: single peptide concentration 2.4 μM; pH 7.5; 30.0 °C. The protocol: as §1
(§2) Enzymatic reaction mixtures contained Tris.HCl (50 mM, pH 7.5), MgCl2 (10 mM), ZnCl2 (10 μM), DTT (5.0 mM), 2.4 μN-dansyl-GCVIA (SEQ ID NO: 2) (2), 0.040% (w/v) n-dodecyl-β-D-maltoside PFTase (80 nM), and varying concentrations of 1 (0-50 μM), in a final volume of 250 μL. The reaction mixtures were equilibrated at 30 ° C. for 1 min, initiated by the addition of PFTase, and monitored for an increase in fluorescence (λex=340 nm, λem=505 nm) for approximately 20 min. The initial rates of formation of products were obtained as slopes in IU/min using least squares analysis. Corrections were applied to all the rate calculations based on the difference between the fluorescence intensity of the prenylated product and the starting peptide. Assuming 100% conversion, the difference corresponds only to the fluorescence of the total amount of the product. The slope was then divided by the fluorescence difference followed by multiplying by the total concentration of peptide (2.4 μM) which then gives the rate of formation of product in μM/s. It should be noted that the KM values reported here are actually apparent KM values, since the measurements were performed in only a single peptide concentration. The data were fit to a Michaelis-Menten model
(§3) [formula] using a nonlinear regression program, to determine kcat and KM (FIG. 4).

Substrate in data set [2]: CC(C)=CCC/C(C)=C/CC/C(C)=C/CO[P@@](=O)(O)OP(=O)(O)O
To be noted: other: single peptide concentration 2.4 μM; pH 7.5; 30.0 °C. The protocol:
as §1, §2, §3

For `C#Cc1cc(C=O)cc(OC/C(C)=C/CC/C(C)=C/COP(=O)(O)OP(=O)(O)O)c1` [Compound 1, (2E,6E)-8-(3-ethynyl-5-formylphenoxy)-3,7-dimethylocta-2,6-dien-1-yl diphosphate], the “kcat lower than the kcat for FPP” value at PFTase (compared with FPP) is given as 42 fold. Also, at PFTase (model peptide N-dansyl-GCVIA (2)), the “substrate for the enzyme” value was “alternative substrate”.

B1: PFTase (Saccharomyces cerevisiae S288C) (protein)
chain 1: MRQRVGRSIARAKFINTALLGRKRPVMERVVDIAHVDSSKAIQPLMKELETDTTEARYKVLQSVLEIYDDEKNIEPALTKEFHKMYLDVAFEISLPPQMTALDASQPWMLYWIANSLKVMDRDWLSDDTKRKIVDKLFTISPSGGPFGGGPGQLSHLASTYAAINALSLCDNIDGCWDRIDRKGIYQWLISLKEPNGGFKTCLEVGEVDTRGIYCALSIATLLNILTEELTEGVLNYLKNCQNYEGGFGSCPHVDEAHGGYTFCATASLAILRSMDQINVEKLLEWSSARQLQEERGFCGRSNKLVDGCYSFWVGGSAAILEAFGYGQCFNKHALRDYILYCCQEKEQPGLRDKPGAHSDFYHTNYCLLGLAVAESSYSCTPNDSPHNIKCTPDRLIGSSKLTDVNPVYGLPIENVRKIIHYFKSNLSSPS
chain 2: MEEYDYSDVKPLPIETDLQDELCRIMYTEDYKRLMGLARALISLNELSPRALQLTAEIIDVAPAFYTIWNYRFNIVRHMMSESEDTVLYLNKELDWLDEVTLNNPKNYQIWSYRQSLLKLHPSPSFKRELPILKLMIDDDSKNYHVWSYRKWCCLFFSDFQHELAYASDLIETDIYNNSAWTHRMFYWVNAKDVISKVELADELQFIMDKIQLVPQNISPWTYLRGFQELFHDRLQWDSKVVDFATTFIGDVLSLPIGSPEDLPEIESSYALEFLAYHWGADPCTRDNAVKAYSLLAIKYDPIRKNLWHHKINNLN
notes: made in house
Take B1: the results for the Michaelis constant (Km) in data set [1] and in data set [2] were 2.52 µM and 1.71 µM, respectively. Also, the kcat in data set [1] was 0.0123 s⁻¹.

One may read the Km as the substrate concentration at which the rate is half of its maximum. By kcat is commonly meant the maximal rate divided by the concentration of active sites.
